Numbered stars: 1 amine (or outer) side, 2 acyl side, 3 side chain; on linkers, the order of the positions; unused ones are H or OH. Bridge positions count the residues as written; N and C are the ends. Square brackets hold non-standard residues; d marks the D form. Primed or numbered codes have the meaning given here. Ends that are not written are not given here. * marks the point of attachment. X7 = 4‑(3,5-Dimethyl-1,2-oxazol-4-yl)‑L‑phenylalanine, Cc1noc(C)c1-c1ccc(C[C@H](N[*:1])C(=O)[*:2])cc1; X13 = (2S)‑2‑amino‑3‑(1-methylcyclopropyl)propanoic acid, CC1(C[C@H](N[*:1])C(=O)[*:2])CC1; Tranexamic″ = tranexamic acid, NC[C@H]1CC[C@@H](C(=O)*)CC1; X5 = Tetrahydropyranyl‑4‑acetic acid, O=C(CC1CCOCC1)*; Oic = O=C(O)[C@@H]1C[C@@H]2CCCC[C@@H]2N1; Cyclobutylacetic = O=C(CC1CCC1)*; tBuAla = CC(C)(C)C[C@H](N)C(=O)O; Pen = CC(C)(S)[C@H](N)C(=O)O; NMeC = CN[C@@H](CS)C(=O)O; Orn = NCCC[C@H](N)C(=O)O; Sar = CNCC(=O)O
T1: recombinant rat MASP1 active protease (amino acids 302-704, C-terminal His Tag) (rat, UniProt Q8CHN8 302-704)
T1 sequence: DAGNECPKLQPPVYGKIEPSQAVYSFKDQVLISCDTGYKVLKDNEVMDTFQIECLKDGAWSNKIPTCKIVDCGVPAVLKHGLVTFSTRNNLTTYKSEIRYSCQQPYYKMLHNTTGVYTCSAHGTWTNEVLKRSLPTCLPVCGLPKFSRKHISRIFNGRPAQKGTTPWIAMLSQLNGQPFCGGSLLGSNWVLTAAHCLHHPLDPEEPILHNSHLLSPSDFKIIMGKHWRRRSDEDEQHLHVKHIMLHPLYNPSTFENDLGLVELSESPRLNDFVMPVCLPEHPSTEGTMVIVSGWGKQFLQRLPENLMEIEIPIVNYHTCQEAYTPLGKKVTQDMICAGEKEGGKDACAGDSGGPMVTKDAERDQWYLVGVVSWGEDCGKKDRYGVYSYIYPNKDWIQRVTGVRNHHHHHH

B1: Example 281: ((N-Me)G)-IC+SRSLPPIC+IPD-OH (peptide)
peptide: [Sar]ICSRSLPPICIPD-OH
modifications: disulfide 3-11; N-terminus assumed
SMILES: CC[C@H](C)[C@H](NC(=O)CNC)C(=O)N[C@H]1CSSC[C@@H](C(=O)N[C@H](C(=O)N2CCC[C@H]2C(=O)N[C@@H](CC(=O)O)C(=O)O)[C@@H](C)CC)NC(=O)[C@H]([C@@H](C)CC)NC(=O)[C@@H]2CCCN2C(=O)[C@@H]2CCCN2C(=O)[C@H](CC(C)C)NC(=O)[C@H](CO)NC(=O)[C@H](CCCNC(=N)N)NC(=O)[C@H](CO)NC1=O
B2: Example 267: ((N-Me)G)-IC+SRS-((2S)-2-amino-3-(1-methylcyclopropyl)propanoic acid)-P-(Oic)-I-(Pen)+IP-NH2 (peptide)
peptide: [Sar]ICSRS[X13]P[Oic]I[Pen]IP-NH2
modifications: disulfide 3-11; N-terminus assumed
SMILES: CC[C@H](C)[C@H](NC(=O)CNC)C(=O)N[C@H]1CSSC(C)(C)[C@@H](C(=O)N[C@H](C(=O)N2CCC[C@H]2C(N)=O)[C@@H](C)CC)NC(=O)[C@H]([C@@H](C)CC)NC(=O)[C@@H]2C[C@@H]3CCCC[C@@H]3N2C(=O)[C@@H]2CCCN2C(=O)[C@H](CC2(C)CC2)NC(=O)[C@H](CO)NC(=O)[C@H](CCCNC(=N)N)NC(=O)[C@H](CO)NC1=O
B3: Example 360: (4-(3,5-Dimethyl-1,2-oxazol-4-yl)-L-phenylalanine)-IC+SRSLP-(Oic)-I-(Pen)+IP-NH2 (peptide)
peptide: [X7]ICSRSLP[Oic]I[Pen]IP-NH2
modifications: disulfide 3-11; N-terminus assumed
SMILES: CC[C@H](C)[C@H](NC(=O)[C@@H](N)Cc1ccc(-c2c(C)noc2C)cc1)C(=O)N[C@H]1CSSC(C)(C)[C@@H](C(=O)N[C@H](C(=O)N2CCC[C@H]2C(N)=O)[C@@H](C)CC)NC(=O)[C@H]([C@@H](C)CC)NC(=O)[C@@H]2C[C@@H]3CCCC[C@@H]3N2C(=O)[C@@H]2CCCN2C(=O)[C@H](CC(C)C)NC(=O)[C@H](CO)NC(=O)[C@H](CCCNC(=N)N)NC(=O)[C@H](CO)NC1=O
B4: Example 370: fIC+SRSLP-(Oic)-I-(Pen)+IP-NH2 (peptide)
peptide: [dF]ICSRSLP[Oic]I[Pen]IP-NH2
modifications: disulfide 3-11; N-terminus assumed
SMILES: CC[C@H](C)[C@H](NC(=O)[C@H](N)Cc1ccccc1)C(=O)N[C@H]1CSSC(C)(C)[C@@H](C(=O)N[C@H](C(=O)N2CCC[C@H]2C(N)=O)[C@@H](C)CC)NC(=O)[C@H]([C@@H](C)CC)NC(=O)[C@@H]2C[C@@H]3CCCC[C@@H]3N2C(=O)[C@@H]2CCCN2C(=O)[C@H](CC(C)C)NC(=O)[C@H](CO)NC(=O)[C@H](CCCNC(=N)N)NC(=O)[C@H](CO)NC1=O
B5: Example 271: ((N-Me)G)-IC+SRSLPPIC+IPD-NH2 (peptide)
peptide: [Sar]ICSRSLPPICIPD-NH2
modifications: disulfide 3-11; N-terminus assumed
SMILES: CC[C@H](C)[C@H](NC(=O)CNC)C(=O)N[C@H]1CSSC[C@@H](C(=O)N[C@H](C(=O)N2CCC[C@H]2C(=O)N[C@@H](CC(=O)O)C(N)=O)[C@@H](C)CC)NC(=O)[C@H]([C@@H](C)CC)NC(=O)[C@@H]2CCCN2C(=O)[C@@H]2CCCN2C(=O)[C@H](CC(C)C)NC(=O)[C@H](CO)NC(=O)[C@H](CCCNC(=N)N)NC(=O)[C@H](CO)NC1=O
B6: Example 381: ((N-Me)G)-(Orn)-(Orn)-(Orn)-IC+SRS-((tBu)A)-PPI-(Pen)+IP-NH2 (peptide)
peptide: [Sar][Orn][Orn][Orn]ICSRS[tBuAla]PPI[Pen]IP-NH2
modifications: disulfide 6-14; N-terminus assumed
SMILES: CC[C@H](C)[C@H](NC(=O)[C@H](CCCN)NC(=O)[C@H](CCCN)NC(=O)[C@H](CCCN)NC(=O)CNC)C(=O)N[C@H]1CSSC(C)(C)[C@@H](C(=O)N[C@H](C(=O)N2CCC[C@H]2C(N)=O)[C@@H](C)CC)NC(=O)[C@H]([C@@H](C)CC)NC(=O)[C@@H]2CCCN2C(=O)[C@@H]2CCCN2C(=O)[C@H](CC(C)(C)C)NC(=O)[C@H](CO)NC(=O)[C@H](CCCNC(=N)N)NC(=O)[C@H](CO)NC1=O
B7: Example 305: (Tetrahydropyranyl-4-acetic acid)-IC+SRS-((tBu)A)-PPI-((N-Me)C)+I-NH2 (peptide)
peptide: X5-ICSRS[tBuAla]PPI[NMeC]I-NH2
modifications: disulfide 2-10
SMILES: CC[C@H](C)[C@H](NC(=O)[C@@H]1CSSC[C@H](NC(=O)[C@@H](NC(=O)CC2CCOCC2)[C@@H](C)CC)C(=O)N[C@@H](CO)C(=O)N[C@@H](CCCNC(=N)N)C(=O)N[C@@H](CO)C(=O)N[C@@H](CC(C)(C)C)C(=O)N2CCC[C@H]2C(=O)N2CCC[C@H]2C(=O)N[C@@H]([C@@H](C)CC)C(=O)N1C)C(N)=O
B8: Example 323: GIC+SRSLP-(Oic)-IC+IPD-OH (peptide)
peptide: GICSRSLP[Oic]ICIPD-OH
modifications: disulfide 3-11; N-terminus assumed
SMILES: CC[C@H](C)[C@H](NC(=O)CN)C(=O)N[C@H]1CSSC[C@@H](C(=O)N[C@H](C(=O)N2CCC[C@H]2C(=O)N[C@@H](CC(=O)O)C(=O)O)[C@@H](C)CC)NC(=O)[C@H]([C@@H](C)CC)NC(=O)[C@@H]2C[C@@H]3CCCC[C@@H]3N2C(=O)[C@@H]2CCCN2C(=O)[C@H](CC(C)C)NC(=O)[C@H](CO)NC(=O)[C@H](CCCNC(=N)N)NC(=O)[C@H](CO)NC1=O
B9: Example 347: IC+SRSLP-(Oic)-I-(Pen)+IPD-OH (peptide)
peptide: ICSRSLP[Oic]I[Pen]IPD-OH
modifications: disulfide 2-10; N-terminus assumed
SMILES: CC[C@H](C)[C@H](N)C(=O)N[C@H]1CSSC(C)(C)[C@@H](C(=O)N[C@H](C(=O)N2CCC[C@H]2C(=O)N[C@@H](CC(=O)O)C(=O)O)[C@@H](C)CC)NC(=O)[C@H]([C@@H](C)CC)NC(=O)[C@@H]2C[C@@H]3CCCC[C@@H]3N2C(=O)[C@@H]2CCCN2C(=O)[C@H](CC(C)C)NC(=O)[C@H](CO)NC(=O)[C@H](CCCNC(=N)N)NC(=O)[C@H](CO)NC1=O
B10: Example 284: (Cyclobutylacetic)-IC+SRS-((tBu)A)-PPI-(Pen)+IP-NH2 (peptide)
peptide: Cyclobutylacetic-ICSRS[tBuAla]PPI[Pen]IP-NH2
modifications: disulfide 2-10
SMILES: CC[C@H](C)[C@H](NC(=O)CC1CCC1)C(=O)N[C@H]1CSSC(C)(C)[C@@H](C(=O)N[C@H](C(=O)N2CCC[C@H]2C(N)=O)[C@@H](C)CC)NC(=O)[C@H]([C@@H](C)CC)NC(=O)[C@@H]2CCCN2C(=O)[C@@H]2CCCN2C(=O)[C@H](CC(C)(C)C)NC(=O)[C@H](CO)NC(=O)[C@H](CCCNC(=N)N)NC(=O)[C@H](CO)NC1=O
B11: Example 269: (Tranexamic)-IC+SRS-((tBu)A)-PPI-(Pen)+IP-NH2 (peptide)
peptide: {Tranexamic″}-ICSRS[tBuAla]PPI[Pen]IP-NH2
modifications: disulfide 2-10
SMILES: CC[C@H](C)[C@@H]1NC(=O)[C@@H]2CCCN2C(=O)[C@@H]2CCCN2C(=O)[C@H](CC(C)(C)C)NC(=O)[C@H](CO)NC(=O)[C@H](CCCNC(=N)N)NC(=O)[C@H](CO)NC(=O)[C@@H](NC(=O)[C@@H](NC(=O)[C@H]2CC[C@@H](CN)CC2)[C@@H](C)CC)CSSC(C)(C)[C@@H](C(=O)N[C@H](C(=O)N2CCC[C@H]2C(N)=O)[C@@H](C)CC)NC1=O

Tests used:
[1] = molecular target: T1, recombinant rat MASP1 active protease …; assay: cell-based or functional assay
[2] = molecular target: recombinant rat MASP2 active protease (amino acids 296-685, C-terminal His Tag) (rat, UniProt Q9JJS8 296-685); assay: cell-based or functional assay
Chain of recombinant rat MASP2 active protease (amino acids 296-685, C-terminal His Tag) (Q9JJS8 other isoform, or with tags, fused parts or gaps limits assumed): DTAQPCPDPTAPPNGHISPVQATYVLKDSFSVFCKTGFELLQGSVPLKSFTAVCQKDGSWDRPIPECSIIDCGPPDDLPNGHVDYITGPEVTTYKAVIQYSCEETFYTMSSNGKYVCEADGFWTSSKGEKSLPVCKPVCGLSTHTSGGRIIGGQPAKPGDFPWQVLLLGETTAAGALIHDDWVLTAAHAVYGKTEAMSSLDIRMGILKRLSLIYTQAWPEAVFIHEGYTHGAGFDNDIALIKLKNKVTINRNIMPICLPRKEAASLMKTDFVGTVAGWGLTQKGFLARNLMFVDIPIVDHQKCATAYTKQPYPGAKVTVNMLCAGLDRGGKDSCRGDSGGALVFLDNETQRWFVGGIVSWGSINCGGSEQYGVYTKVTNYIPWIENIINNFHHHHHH

Binder	rat MASP1 IC50 [1]	rat MASP2 IC50 [2]
B1	270 nM	308 nM
B2	130 nM	42 nM
B3	120 nM	73 nM
B4	235 nM	170 nM
B5	88.7 nM	55.2 nM
B6	600 nM	470 nM
B7	76 nM	5.3 nM
B8	51.8 nM	60.1 nM
B9	1000 nM	1000 nM
B10	60 nM	9.7 nM
B11	120 nM	9.6 nM

— patent publication US20210246166A1 (Bayer, published 2021)
